Publication PMC10570326

Target: OmpK36 (UniProt Q48473)
Test: crystal structure; laser-shaped cylindrical crystal, S-SAD at a wavelength of 4.13 Å, resolution limited to 2.7 Å

For “OmpK36 (from UniProt Q48473 22-363) (natural protein)”, which stoichiometry N is on record?
Its stoichiometry N is 3.
